Legend:
[1] = target: phosphorylated Nedd4-2^186–975 (human) (UniProt Q96PU5); test: AUC; sedimentation velocity, 20 °C, 50 mM Tris-HCl pH 8.0, 500 mM NaCl, 1 mM TCEP, 0.01% NP-40; 3 μM pNedd4-2^186–975 alone, 6 μM 14-3-3η alone, mixtures 1:1 and 1:2; 300 nM pNedd4-2^186–975 with 0.06−6 μM 14-3-3η; apparent KD, sw isotherm and Lamm-equation modelling, 14-3-3η dimer + one pNedd4-2
[2] = target: phosphorylated Nedd4-2^186–975 (human) (UniProt Q96PU5); test: SEC-SAXS; Superdex 200 Increase 5/150 GL, 20 mM Tris-HCl pH 7.5, 150 mM NaCl, 1 mM TCEP, 3% glycerol, 293.15 K; loaded 2.2 mg/ml Nedd4-2^186–975, 2 mg/ml 14-3-3η, 8.9 mg/ml complex (1:2, 60 μM)

phosphorylated Nedd4-2^186–975 (human), sequence (Q96PU5 186-975): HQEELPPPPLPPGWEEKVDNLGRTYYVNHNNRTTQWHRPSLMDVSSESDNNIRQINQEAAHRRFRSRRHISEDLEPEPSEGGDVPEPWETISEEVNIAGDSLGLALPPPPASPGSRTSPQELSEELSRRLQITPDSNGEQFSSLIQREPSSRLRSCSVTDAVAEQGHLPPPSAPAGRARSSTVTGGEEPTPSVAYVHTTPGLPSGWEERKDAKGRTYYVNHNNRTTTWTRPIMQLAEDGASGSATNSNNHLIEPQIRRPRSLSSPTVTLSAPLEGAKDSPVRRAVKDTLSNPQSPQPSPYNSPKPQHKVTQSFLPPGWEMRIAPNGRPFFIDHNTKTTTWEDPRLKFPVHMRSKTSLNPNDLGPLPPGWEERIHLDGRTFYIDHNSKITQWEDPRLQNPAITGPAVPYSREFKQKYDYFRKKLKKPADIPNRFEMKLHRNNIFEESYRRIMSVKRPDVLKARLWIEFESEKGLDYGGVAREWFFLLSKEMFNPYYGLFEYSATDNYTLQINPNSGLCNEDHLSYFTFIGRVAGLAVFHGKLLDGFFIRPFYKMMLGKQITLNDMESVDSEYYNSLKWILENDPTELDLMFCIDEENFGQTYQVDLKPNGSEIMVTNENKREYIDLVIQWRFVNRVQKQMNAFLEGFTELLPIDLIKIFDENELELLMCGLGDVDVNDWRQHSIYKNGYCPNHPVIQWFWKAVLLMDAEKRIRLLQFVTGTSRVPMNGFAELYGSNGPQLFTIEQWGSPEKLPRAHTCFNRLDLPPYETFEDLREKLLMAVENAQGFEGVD

## 14-3-3η (from UniProt Q04917 1-246) (natural protein)
[1]
  Kd: < 50 nM
  stoichiometry N (14-3-3η protomers per Nedd4-2 protomer): 2
[2]
  stoichiometry N (14-3-3η protomers per Nedd4-2 protomer): 2
